The text below walks through data of the supplement of paper PMC9112550, “Optimization of the antimicrobial peptide Bac7 by deep mutational scanning” (BMC Biology, 2022).

The test system of the series is Escherichia coli TOP10. The series is described as follows: shrunken log2 fold change of peptide-encoding DNA abundance (4.5 h post-induction vs induction); higher = less antimicrobial activity (less host growth inhibition). Conditions: time post-induction: 4.5 h; library: site-saturation at positions 5, 18, 19, 20.
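Also: peptides expressed intracellularly from a pBAD plasmid library in pooled LB shake-flask culture, induced with 0.3% L-arabinose, DNA abundance read by NGS, three biological replicates, DESeq2 with apeglm shrinkage.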

In the case of RRIRRRPPRLPRPRPRPELPPRP, the “shrunken log2 fold change” value is 0.695.

With RRIRSRPPRLPRPRPRPFEIPRP, the “shrunken log2 fold change” value came to 0.0385.

Regarding RRIRRRPPRLPRPRPRPWMGPRP, the “shrunken log2 fold change” value is -0.127.

Turning to RRIRHRPPRLPRPRPRPAFRPRP, the “shrunken log2 fold change” value worked out at 0.0888.

On to RRIRRRPPRLPRPRPRPRSVPRP, for which the “shrunken log2 fold change” value amounted to 0.234.

As for RRIRARPPRLPRPRPRPEGCPRP, the “shrunken log2 fold change” value came to 1.31.

Consider RRIRARPPRLPRPRPRPREIPRP, for which the “shrunken log2 fold change” value is 0.865.

In the case of RRIRDRPPRLPRPRPRPTEPPRP, the “shrunken log2 fold change” value stood at 0.185.

With RRIRMRPPRLPRPRPRPEFVPRP, the “shrunken log2 fold change” value was determined as 0.383.

Take RRIRPRPPRLPRPRPRPNNTPRP: the “shrunken log2 fold change” value is -0.312.

With RRIRWRPPRLPRPRPRPIVQPRP, the “shrunken log2 fold change” value came to 0.0969.

For RRIRWRPPRLPRPRPRPINDPRP, the “shrunken log2 fold change” value was -0.222.

Turning to RRIRFRPPRLPRPRPRPQTHPRP, the “shrunken log2 fold change” value is -0.151.

In the case of RRIRTRPPRLPRPRPRPHVPPRP, the “shrunken log2 fold change” value is -0.374.

Regarding RRIRTRPPRLPRPRPRPEMPPRP, the “shrunken log2 fold change” value was -0.0682.

For RRIRKRPPRLPRPRPRPWFGPRP, the “shrunken log2 fold change” value is 0.0558.

On to RRIRNRPPRLPRPRPRPVGMPRP, for which the “shrunken log2 fold change” value came to 0.23.

Consider RRIRVRPPRLPRPRPRPKRWPRP, for which the “shrunken log2 fold change” value was determined as 0.706.

As for RRIRRRPPRLPRPRPRPPDVPRP, the “shrunken log2 fold change” value worked out at 0.474.

As to RRIRDRPPRLPRPRPRPANLPRP, the “shrunken log2 fold change” value was -0.0687.

Turning to RRIRARPPRLPRPRPRPRCFPRP, the “shrunken log2 fold change” value worked out at 0.222.

As to RRIRWRPPRLPRPRPRPFRKPRP, the “shrunken log2 fold change” value was -0.351.

RRIRGRPPRLPRPRPRPTVLPRP: the “shrunken log2 fold change” value turned out to be 0.564.

RRIRGRPPRLPRPRPRPHGMPRP: the “shrunken log2 fold change” value worked out at 0.0949.

RRIRYRPPRLPRPRPRPHKIPRP: the “shrunken log2 fold change” value was -0.226.

With RRIRVRPPRLPRPRPRPYINPRP, the “shrunken log2 fold change” value was -0.724.

Regarding RRIRERPPRLPRPRPRPIELPRP, the “shrunken log2 fold change” value was -0.163.

On to RRIRHRPPRLPRPRPRPIRDPRP, for which the “shrunken log2 fold change” value came out at 0.0386.

RRIRLRPPRLPRPRPRPQCKPRP: the “shrunken log2 fold change” value was -0.425.

Consider RRIRCRPPRLPRPRPRPGYHPRP, for which the “shrunken log2 fold change” value is -0.997.

For RRIRTRPPRLPRPRPRPMWFPRP, the “shrunken log2 fold change” value came to 0.253.

With RRIRSRPPRLPRPRPRPVTHPRP, the “shrunken log2 fold change” value is -0.152.

Turning to RRIRHRPPRLPRPRPRPKMLPRP, the “shrunken log2 fold change” value was -0.353.

On to RRIRGRPPRLPRPRPRPLYAPRP, for which the “shrunken log2 fold change” value is 0.64.

With RRIRWRPPRLPRPRPRPKFAPRP, the “shrunken log2 fold change” value stood at 0.453.

On to RRIRYRPPRLPRPRPRPRENPRP, for which the “shrunken log2 fold change” value came out at 0.0246.

RRIRFRPPRLPRPRPRPRNVPRP: the “shrunken log2 fold change” value is -0.372.

For the sequence RRIRYRPPRLPRPRPRPLFEPRP, the “shrunken log2 fold change” value was -0.414.

Turning to RRIRARPPRLPRPRPRPNLNPRP, the “shrunken log2 fold change” value was -0.0397.

Regarding RRIRYRPPRLPRPRPRPFGAPRP, the “shrunken log2 fold change” value was -0.391.

Consider RRIRIRPPRLPRPRPRPMTQPRP, for which the “shrunken log2 fold change” value was 0.0472.

Turning to RRIRTRPPRLPRPRPRPHCWPRP, the “shrunken log2 fold change” value was -0.0903.

For the sequence RRIRDRPPRLPRPRPRPFYTPRP, the “shrunken log2 fold change” value was -0.687.

In the case of RRIRQRPPRLPRPRPRPTTEPRP, the “shrunken log2 fold change” value came to 0.26.

As for RRIRRRPPRLPRPRPRPAPSPRP, the “shrunken log2 fold change” value came to 0.809.

As to RRIRVRPPRLPRPRPRPATFPRP, the “shrunken log2 fold change” value was -0.387.

In the case of RRIRSRPPRLPRPRPRPCCPPRP, the “shrunken log2 fold change” value is -0.0457.

Take RRIRERPPRLPRPRPRPWNGPRP: the “shrunken log2 fold change” value is 0.208.

Take RRIRHRPPRLPRPRPRPPMRPRP: the “shrunken log2 fold change” value stood at 0.747.

For RRIRSRPPRLPRPRPRPIQCPRP, the “shrunken log2 fold change” value stood at 0.0235.

Turning to RRIRYRPPRLPRPRPRPAVYPRP, the “shrunken log2 fold change” value was -0.0166.

Turning to RRIRHRPPRLPRPRPRPSEPPRP, the “shrunken log2 fold change” value was -0.206.

Take RRIRFRPPRLPRPRPRPYVDPRP: the “shrunken log2 fold change” value was -0.00112.

Take RRIRTRPPRLPRPRPRPWTKPRP: the “shrunken log2 fold change” value was -0.00433.

Turning to RRIRTRPPRLPRPRPRPDNRPRP, the “shrunken log2 fold change” value was -0.0132.

As for RRIRYRPPRLPRPRPRPWKEPRP, the “shrunken log2 fold change” value is -0.0075.

Turning to RRIRVRPPRLPRPRPRPKQEPRP, the “shrunken log2 fold change” value worked out at 0.239.

On to RRIRYRPPRLPRPRPRPEDFPRP, for which the “shrunken log2 fold change” value is -0.00133.

For RRIRSRPPRLPRPRPRPSNKPRP, the “shrunken log2 fold change” value is -0.413.

Regarding RRIRARPPRLPRPRPRPFLDPRP, the “shrunken log2 fold change” value came to 0.116.

Take RRIRMRPPRLPRPRPRPMCRPRP: the “shrunken log2 fold change” value was 0.0713.

Take RRIRCRPPRLPRPRPRPAVVPRP: the “shrunken log2 fold change” value was -0.243.

Turning to RRIRDRPPRLPRPRPRPVAEPRP, the “shrunken log2 fold change” value worked out at 1.16.

With RRIRNRPPRLPRPRPRPWMHPRP, the “shrunken log2 fold change” value was -0.228.

RRIRFRPPRLPRPRPRPAYGPRP: the “shrunken log2 fold change” value was -0.41.

Regarding RRIRYRPPRLPRPRPRPHTDPRP, the “shrunken log2 fold change” value was -0.368.

Turning to RRIRPRPPRLPRPRPRPRSLPRP, the “shrunken log2 fold change” value is 0.14.

For the sequence RRIRLRPPRLPRPRPRPQRWPRP, the “shrunken log2 fold change” value is 0.236.

For the sequence RRIRQRPPRLPRPRPRPTHLPRP, the “shrunken log2 fold change” value amounted to 0.205.

In the case of RRIRIRPPRLPRPRPRPSFHPRP, the “shrunken log2 fold change” value was -1.13.

In the case of RRIRMRPPRLPRPRPRPHPWPRP, the “shrunken log2 fold change” value came to 0.227.

As for RRIRLRPPRLPRPRPRPKKFPRP, the “shrunken log2 fold change” value is -0.322.

Take RRIRVRPPRLPRPRPRPTYYPRP: the “shrunken log2 fold change” value was -0.315.

Take RRIRNRPPRLPRPRPRPPAPPRP: the “shrunken log2 fold change” value is 0.78.

In the case of RRIRIRPPRLPRPRPRPRLEPRP, the “shrunken log2 fold change” value is 0.117.

For the sequence RRIRDRPPRLPRPRPRPDSFPRP, the “shrunken log2 fold change” value was -0.00691.

Take RRIRPRPPRLPRPRPRPPSGPRP: the “shrunken log2 fold change” value came to 0.527.

In the case of RRIRWRPPRLPRPRPRPFFIPRP, the “shrunken log2 fold change” value is -0.309.

Consider RRIRWRPPRLPRPRPRPCFRPRP, for which the “shrunken log2 fold change” value is 0.021.

Turning to RRIRERPPRLPRPRPRPWKNPRP, the “shrunken log2 fold change” value was -0.0553.

For the sequence RRIRPRPPRLPRPRPRPLTEPRP, the “shrunken log2 fold change” value came to 0.0389.

For RRIRQRPPRLPRPRPRPRKCPRP, the “shrunken log2 fold change” value worked out at 0.158.

With RRIRRRPPRLPRPRPRPTYHPRP, the “shrunken log2 fold change” value turned out to be 0.648.

As for RRIRLRPPRLPRPRPRPDDSPRP, the “shrunken log2 fold change” value is 0.0276.

Regarding RRIRERPPRLPRPRPRPWCGPRP, the “shrunken log2 fold change” value is -0.245.

Take RRIRCRPPRLPRPRPRPAMHPRP: the “shrunken log2 fold change” value came to 0.354.

For RRIRDRPPRLPRPRPRPHVMPRP, the “shrunken log2 fold change” value was -0.0796.

As for RRIRDRPPRLPRPRPRPLGYPRP, the “shrunken log2 fold change” value came out at 0.0343.

Consider RRIRYRPPRLPRPRPRPFEKPRP, for which the “shrunken log2 fold change” value was 0.021.

RRIRPRPPRLPRPRPRPFNIPRP: the “shrunken log2 fold change” value is -0.293.

In the case of RRIRSRPPRLPRPRPRPRIGPRP, the “shrunken log2 fold change” value came to 0.395.

Consider RRIRLRPPRLPRPRPRPCREPRP, for which the “shrunken log2 fold change” value amounted to 0.251.

In the case of RRIRDRPPRLPRPRPRPYWWPRP, the “shrunken log2 fold change” value stood at 0.021.

Consider RRIRDRPPRLPRPRPRPGQAPRP, for which the “shrunken log2 fold change” value came out at 0.0989.

Turning to RRIRPRPPRLPRPRPRPRVFPRP, the “shrunken log2 fold change” value worked out at 0.607.

For RRIRFRPPRLPRPRPRPKMVPRP, the “shrunken log2 fold change” value is -0.0413.

In the case of RRIRLRPPRLPRPRPRPPGTPRP, the “shrunken log2 fold change” value stood at 0.448.

In the case of RRIRCRPPRLPRPRPRPCRDPRP, the “shrunken log2 fold change” value is -0.142.

As for RRIRQRPPRLPRPRPRPHTNPRP, the “shrunken log2 fold change” value was -0.814.

As for RRIRPRPPRLPRPRPRPYQAPRP, the “shrunken log2 fold change” value is -0.0753.

RRIRTRPPRLPRPRPRPSRPPRP: the “shrunken log2 fold change” value is 0.202.

Turning to RRIRYRPPRLPRPRPRPEDNPRP, the “shrunken log2 fold change” value is -0.0125.

Turning to RRIRKRPPRLPRPRPRPTGVPRP, the “shrunken log2 fold change” value amounted to 0.00874.

On to RRIRVRPPRLPRPRPRPWQKPRP, for which the “shrunken log2 fold change” value was found to be 0.015.

RRIRGRPPRLPRPRPRPCDWPRP: the “shrunken log2 fold change” value is 0.519.

In the case of RRIRARPPRLPRPRPRPWWQPRP, the “shrunken log2 fold change” value is 0.00618.

With RRIRERPPRLPRPRPRPLVTPRP, the “shrunken log2 fold change” value came to 0.503.

On to RRIRNRPPRLPRPRPRPAKKPRP, for which the “shrunken log2 fold change” value is -0.0505.

Turning to RRIRIRPPRLPRPRPRPHAFPRP, the “shrunken log2 fold change” value was -0.0152.

For RRIRFRPPRLPRPRPRPESLPRP, the “shrunken log2 fold change” value turned out to be 0.0896.

As to RRIRLRPPRLPRPRPRPEFLPRP, the “shrunken log2 fold change” value was -0.108.

For the sequence RRIRFRPPRLPRPRPRPYCEPRP, the “shrunken log2 fold change” value was -0.0267.

Turning to RRIRMRPPRLPRPRPRPDCAPRP, the “shrunken log2 fold change” value is 1.95.

For RRIRTRPPRLPRPRPRPQSKPRP, the “shrunken log2 fold change” value is -0.209.

Regarding RRIRKRPPRLPRPRPRPMKEPRP, the “shrunken log2 fold change” value was found to be 0.0132.

As for RRIRWRPPRLPRPRPRPPRCPRP, the “shrunken log2 fold change” value was found to be 0.483.

Take RRIRWRPPRLPRPRPRPYLAPRP: the “shrunken log2 fold change” value was -0.211.

Take RRIRNRPPRLPRPRPRPLGSPRP: the “shrunken log2 fold change” value is -0.0602.

In the case of RRIRSRPPRLPRPRPRPVVHPRP, the “shrunken log2 fold change” value was -0.126.

RRIRERPPRLPRPRPRPGIAPRP: the “shrunken log2 fold change” value is -0.183.

Turning to RRIRVRPPRLPRPRPRPSPNPRP, the “shrunken log2 fold change” value is -0.271.

For RRIRCRPPRLPRPRPRPRSCPRP, the “shrunken log2 fold change” value is -0.159.

For the sequence RRIRDRPPRLPRPRPRPVPGPRP, the “shrunken log2 fold change” value was found to be 0.214.

On to RRIRWRPPRLPRPRPRPNWCPRP, for which the “shrunken log2 fold change” value was -0.0188.

Regarding RRIRARPPRLPRPRPRPVPNPRP, the “shrunken log2 fold change” value was -0.0263.
